The labels stand for the following.
B1: glmS ribozyme (parent)
chain: AUAAAAGCGCCAGAACUACAGAAAUGUAGUUGACGAGGAGGAGGUUUAUCGAAUUUUCGGCGGAUGCCUCCAAA

± gives the standard error. Variants at the floor of the assay were thinned out.

What all share (conditions): with glucosamine-6-phosphate
Data set [1] covers variants of B1. The experiment in a line: self-cleavage kobs at 40 uM GlcN6P; higher = faster cleavage; RNA array. In short, it runs like this: (§1)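 Over ~14 h at 37 °C, tiles were imaged as glucosamine-6-phosphate (40 μM to 10 mM) in HEPES/KCl/Mg(OAc)2 buffer flowed across sequenced MiSeq chips. The chips carried barcoded ribozyme variants transcribed in situ by E. coli RNA polymerase and tracked with a hybridised Cy3 probe. After normalisation to baseline and to non-cleaving reference variants, one- or two-exponential decay fits of per-tile medians gave kobs. kcat and KM followed from weighted Michaelis–Menten fits across concentrations.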

Variants of B1 are the subject of data set [2]. The experiment in a line: self-cleavage kobs at 160 uM GlcN6P; higher = faster cleavage; RNA array. In short, it runs like this: as §1
Data set [3] covers variants of B1. The experiment in a line: self-cleavage kobs at 640 uM GlcN6P; higher = faster cleavage; RNA array. In short, it runs like this:
as §1

In data set [4] the parent is B1. Briefly: self-cleavage kobs at 2500 uM GlcN6P; higher = faster cleavage; RNA array. In short, it runs like this:
as §1

The variants in data set [5] derive from B1. The experiment in a line: self-cleavage kobs at 10000 uM GlcN6P; higher = faster cleavage; RNA array. In short, it runs like this: as §1

In the case of U31A C71G, the “self-cleavage kobs at 40 uM GlcN6P” value in the data set with glucosamine-6-phosphate [1] came to 4.17e-05 ± 1e-05 s⁻¹. Besides, the “self-cleavage kobs at 160 uM GlcN6P” value in the data set with glucosamine-6-phosphate [2] turned out to be 0.000162 ± 3.4e-05 s⁻¹. In the data set with glucosamine-6-phosphate [3], the “self-cleavage kobs at 640 uM GlcN6P” value was found to be 0.000196 ± 3.4e-05 s⁻¹. The “self-cleavage kobs at 2500 uM GlcN6P” value with glucosamine-6-phosphate [4] was determined as 0.000225 ± 4.8e-05 s⁻¹. For the same variant, in the data set with glucosamine-6-phosphate [5], the “self-cleavage kobs at 10000 uM GlcN6P” value was 0.000728 ± 0.00011 s⁻¹.

Regarding C8U G29A G40U U45A, the “self-cleavage kobs at 40 uM GlcN6P” value with glucosamine-6-phosphate [1] was less than 1e-05 s⁻¹. Moreover, the “self-cleavage kobs at 10000 uM GlcN6P” value with glucosamine-6-phosphate [5] was less than 1e-05 s⁻¹.

Take C11G A42U: in the data set with glucosamine-6-phosphate [1], the “self-cleavage kobs at 40 uM GlcN6P” value is less than 1e-05 s⁻¹. Besides, the “self-cleavage kobs at 160 uM GlcN6P” value with glucosamine-6-phosphate [2] is less than 1e-05 s⁻¹. For the same variant, the “self-cleavage kobs at 640 uM GlcN6P” value with glucosamine-6-phosphate [3] was less than 1e-05 s⁻¹. In the data set with glucosamine-6-phosphate [4], the “self-cleavage kobs at 2500 uM GlcN6P” value is less than 1e-05 s⁻¹. Further, the “self-cleavage kobs at 10000 uM GlcN6P” value with glucosamine-6-phosphate [5] is less than 1e-05 s⁻¹.

Take C61U C68U C70A: the “self-cleavage kobs at 40 uM GlcN6P” value with glucosamine-6-phosphate [1] is less than 1e-05 s⁻¹. In the data set with glucosamine-6-phosphate [4], the “self-cleavage kobs at 2500 uM GlcN6P” value is less than 1e-05 s⁻¹.

On to G13U G38U C68G, for which, in the data set with glucosamine-6-phosphate [1], the “self-cleavage kobs at 40 uM GlcN6P” value came to 0.00012 ± 4.3e-05 s⁻¹. In addition, the “self-cleavage kobs at 160 uM GlcN6P” value with glucosamine-6-phosphate [2] came out at 0.000111 ± 2.7e-05 s⁻¹. The “self-cleavage kobs at 640 uM GlcN6P” value in the data set with glucosamine-6-phosphate [3] amounted to 0.000157 ± 4.9e-05 s⁻¹. In addition, in the data set with glucosamine-6-phosphate [4], the “self-cleavage kobs at 2500 uM GlcN6P” value is 6.64e-05 ± 2.9e-05 s⁻¹. Further, in the data set with glucosamine-6-phosphate [5], the “self-cleavage kobs at 10000 uM GlcN6P” value was 7.63e-05 ± 1.8e-05 s⁻¹.

As for C10G A14U C34A U49G, the “self-cleavage kobs at 40 uM GlcN6P” value in the data set with glucosamine-6-phosphate [1] is less than 1e-05 s⁻¹.

Turning to A36C G40A U56G, the “self-cleavage kobs at 40 uM GlcN6P” value in the data set with glucosamine-6-phosphate [1] was less than 1e-05 s⁻¹.

For the variant C11A A12C A64C, the “self-cleavage kobs at 40 uM GlcN6P” value in the data set with glucosamine-6-phosphate [1] is less than 1e-05 s⁻¹. For the same variant, the “self-cleavage kobs at 2500 uM GlcN6P” value in the data set with glucosamine-6-phosphate [4] is less than 1e-05 s⁻¹. Besides, the “self-cleavage kobs at 10000 uM GlcN6P” value with glucosamine-6-phosphate [5] is less than 1e-05 s⁻¹.

Regarding C11G A15C G29U A64U C70U, in the data set with glucosamine-6-phosphate [1], the “self-cleavage kobs at 40 uM GlcN6P” value is less than 1e-05 s⁻¹. The “self-cleavage kobs at 10000 uM GlcN6P” value with glucosamine-6-phosphate [5] was less than 1e-05 s⁻¹.

As to U57G G63U, the “self-cleavage kobs at 40 uM GlcN6P” value in the data set with glucosamine-6-phosphate [1] was less than 1e-05 s⁻¹. The “self-cleavage kobs at 160 uM GlcN6P” value in the data set with glucosamine-6-phosphate [2] is less than 1e-05 s⁻¹. Further, the “self-cleavage kobs at 2500 uM GlcN6P” value in the data set with glucosamine-6-phosphate [4] was less than 1e-05 s⁻¹. For the same variant, in the data set with glucosamine-6-phosphate [5], the “self-cleavage kobs at 10000 uM GlcN6P” value is less than 1e-05 s⁻¹.

For C34U A36C C58A, the “self-cleavage kobs at 40 uM GlcN6P” value with glucosamine-6-phosphate [1] was less than 1e-05 s⁻¹.

For the variant A36U C61G A64C, the “self-cleavage kobs at 40 uM GlcN6P” value with glucosamine-6-phosphate [1] was less than 1e-05 s⁻¹.

With G9U U30C G43A, the “self-cleavage kobs at 40 uM GlcN6P” value in the data set with glucosamine-6-phosphate [1] is less than 1e-05 s⁻¹. Also, the “self-cleavage kobs at 640 uM GlcN6P” value with glucosamine-6-phosphate [3] was less than 1e-05 s⁻¹.

Consider U47G C67A, for which the “self-cleavage kobs at 40 uM GlcN6P” value with glucosamine-6-phosphate [1] is 0.000123 ± 1.8e-05 s⁻¹. The “self-cleavage kobs at 160 uM GlcN6P” value with glucosamine-6-phosphate [2] is 0.000171 ± 3.2e-05 s⁻¹. Moreover, the “self-cleavage kobs at 640 uM GlcN6P” value in the data set with glucosamine-6-phosphate [3] stood at 0.000788 ± 0.00013 s⁻¹. Further, in the data set with glucosamine-6-phosphate [4], the “self-cleavage kobs at 2500 uM GlcN6P” value stood at 0.000691 ± 0.00014 s⁻¹. The “self-cleavage kobs at 10000 uM GlcN6P” value with glucosamine-6-phosphate [5] was found to be 0.00198 ± 0.00048 s⁻¹.

For the variant U46C A64C, the “self-cleavage kobs at 40 uM GlcN6P” value with glucosamine-6-phosphate [1] was less than 1e-05 s⁻¹. Besides, in the data set with glucosamine-6-phosphate [4], the “self-cleavage kobs at 2500 uM GlcN6P” value is less than 1e-05 s⁻¹. In addition, in the data set with glucosamine-6-phosphate [5], the “self-cleavage kobs at 10000 uM GlcN6P” value is less than 1e-05 s⁻¹.

Turning to G40U C71A, the “self-cleavage kobs at 40 uM GlcN6P” value in the data set with glucosamine-6-phosphate [1] amounted to 0.000671 ± 6.2e-05 s⁻¹. For the same variant, in the data set with glucosamine-6-phosphate [2], the “self-cleavage kobs at 160 uM GlcN6P” value is 0.00189 ± 0.00028 s⁻¹. Besides, the “self-cleavage kobs at 640 uM GlcN6P” value with glucosamine-6-phosphate [3] was 0.00561 ± 0.00069 s⁻¹. In the data set with glucosamine-6-phosphate [4], the “self-cleavage kobs at 2500 uM GlcN6P” value amounted to 0.00906 ± 0.0019 s⁻¹. In the data set with glucosamine-6-phosphate [5], the “self-cleavage kobs at 10000 uM GlcN6P” value was determined as 0.0484 ± 0.0079 s⁻¹.

On to U47C C61U G63U, for which the “self-cleavage kobs at 40 uM GlcN6P” value with glucosamine-6-phosphate [1] was less than 1e-05 s⁻¹.

In the case of C10A U57C, the “self-cleavage kobs at 40 uM GlcN6P” value with glucosamine-6-phosphate [1] was less than 1e-05 s⁻¹. Moreover, in the data set with glucosamine-6-phosphate [2], the “self-cleavage kobs at 160 uM GlcN6P” value was less than 1e-05 s⁻¹.

As for A14C A15U U56G, the “self-cleavage kobs at 40 uM GlcN6P” value with glucosamine-6-phosphate [1] is 0.000225 ± 6.3e-05 s⁻¹. In the data set with glucosamine-6-phosphate [3], the “self-cleavage kobs at 640 uM GlcN6P” value worked out at 0.00145 ± 0.00027 s⁻¹. For the same variant, the “self-cleavage kobs at 2500 uM GlcN6P” value with glucosamine-6-phosphate [4] came out at 0.00238 ± 0.00057 s⁻¹. Moreover, in the data set with glucosamine-6-phosphate [5], the “self-cleavage kobs at 10000 uM GlcN6P” value was 0.00809 ± 0.0027 s⁻¹.

Turning to A36G G60U, in the data set with glucosamine-6-phosphate [1], the “self-cleavage kobs at 40 uM GlcN6P” value was less than 1e-05 s⁻¹. Moreover, the “self-cleavage kobs at 160 uM GlcN6P” value with glucosamine-6-phosphate [2] is less than 1e-05 s⁻¹. In the data set with glucosamine-6-phosphate [3], the “self-cleavage kobs at 640 uM GlcN6P” value is less than 1e-05 s⁻¹. Besides, the “self-cleavage kobs at 2500 uM GlcN6P” value in the data set with glucosamine-6-phosphate [4] was less than 1e-05 s⁻¹. For the same variant, the “self-cleavage kobs at 10000 uM GlcN6P” value with glucosamine-6-phosphate [5] is less than 1e-05 s⁻¹.

On to G7U U69A, for which, in the data set with glucosamine-6-phosphate [1], the “self-cleavage kobs at 40 uM GlcN6P” value was 3.92e-05 ± 1.7e-05 s⁻¹. Further, the “self-cleavage kobs at 160 uM GlcN6P” value with glucosamine-6-phosphate [2] is 0.000853 ± 0.00032 s⁻¹.

For the variant A15G U56G, the “self-cleavage kobs at 40 uM GlcN6P” value with glucosamine-6-phosphate [1] is 0.000419 ± 4.9e-05 s⁻¹. Also, the “self-cleavage kobs at 160 uM GlcN6P” value with glucosamine-6-phosphate [2] is 0.000989 ± 0.00014 s⁻¹. Further, the “self-cleavage kobs at 640 uM GlcN6P” value with glucosamine-6-phosphate [3] was 0.00325 ± 0.00045 s⁻¹. Besides, the “self-cleavage kobs at 2500 uM GlcN6P” value in the data set with glucosamine-6-phosphate [4] stood at 0.00559 ± 0.00073 s⁻¹. The “self-cleavage kobs at 10000 uM GlcN6P” value in the data set with glucosamine-6-phosphate [5] worked out at 0.0296 ± 0.0053 s⁻¹.

The record behind these values is the supplement of paper PMC7125110.
